Test results: patent publication US20260217846A1 (University of Texas, published 2026)

B1: Clone 49A 4-1BB antibody (IgG1) (antibody, V domains shown)
VH: VKLQQSGPELVKPGASVKISCKASGYTFTDYYMNWVKESHGKSLEWIGDINPNNGGSTYYNQKFKGKATLTVEKSSSTAFMELRSLTSEDSAVYYCARSLYGSTYYFDYWGQGTPLTVSS
VL: DIVLTQSPASLAVSLGQRATISCKASQSVDYDGDSYMNWYQQKPGQPPKLLIYAASNLESGIPARFSGSGSGTDFTLNIHPVEEEDAGTYYCQQSNDDPWTFGGGTKLEIK
notes: Mouse hybridoma antibody, IgG1
B2: Clone 54 4-1BB antibody (IgG2a) (antibody, V domains shown)
VH: EFQLQQSGPELVKPGASVKISCKASGYSFTDYNMNWVKQSNGKSLEWIGVINPNYGTTSYNQKFKGKATFTVDQSSSTAYMQLNSLTSEDSAVYYCARSPVEDYFDYWGQGTTLTVSS
VL: ENVLTQSPAIMSASPGEKVTMTCRARSSVSSSYLHWYQQKSGASPKLWIYSTSNLASGVPARFSGSGSGTSYSLTISSVEAEDAATYYCQQYSGYPLITFGAGTKLELKR
notes: Mouse hybridoma antibody, IgG2a; also called Curranlumab; hybridoma clone 271-54 41-BB
B3: Clone 138 4-1BB antibody (IgG2b) (antibody, V domains shown)
VH: VQLQESGGGLVKPGGSLKLSCAASGFTFSDYGMHWVRQAPEKGLEWVAYISSGSNSIYYADTVTGRFTISRDNAKNTLFLQMTSLRSEDTAMYYCASNNGYFYFDYWGQGTTLTVSS
VL: IVITQSPAILSASPGEKVTMTCRASSSVSYMHWYQQKPGSSPKPWIYATSNLASGVPARFSGSGSGTSYSLTVSRVEAEDAATYYCQQWSSDPFTFGSGTKLEIK
notes: Mouse hybridoma antibody, IgG2b

The binders below were run against T1, recombinant human 4-1BB (human, UniProt Q07011 24-186, limits assumed) (assay: ELISA titration on recombinant human 4-1BB).
T1 construct: The ELISA antigen is called only 'recombinant human 4-1BB'; also called CD137; TNFSFR

Binding result, binds:
B1
B2
B3
